{"source": "patent US6512102B1", "about": "“Compositions and methods of diagnosis and treatment using casein kinase I” (Chiron Corporation, priority 1998, dated 2003)", "key": {"Arm (β-catenin)": {"system": "Arm (β-catenin)", "assay": "Arm (β-catenin) protein level in stable Drosophila Schneider cells, Western blot", "assay_type": "cell-based", "excerpt": "Drosophila Schneider cell lines were derived that stably express CKIε in the presence or absence of Drosophila Sgg (GSK3) protein. CKIε and sgg (GSK3) gene expression were controlled by a metallothionein promoter which is induced by copper. […] In the cells expressing CKIε and Sgg (GSK3), Arm (β-catenin) protein level is reduced.\nCKIε was PCR-cloned into a vector pRmHa-3 containing a copper-inducible promoter (metallothionine). It was co-transfected with pMKK3 containing the neo-gene (G418-resistant gene) into Drosophila Schneider cells. G418 was used for selection of a stable cell line. In addition, stable cell lines containing combinations of CKIε+wt sgg, CKIε+Actsgg, CKIKD, CKIKD+DN Sgg were made. Actsgg is a mutant containing a mutation of Ser9 to Ala. To detect stabilized Arm, cells were plated 16 hours before the copper induction and lysed three hours after the copper induction. Western blots were performed with anti-Arm mAb 7A12."}, "Wnt pathway": {"system": "Wnt pathway", "assay": "Wnt pathway activation by CKI isoforms (ectopic axis in Xenopus embryos and Lef-1 reporter gene assay)", "assay_type": "cell-based", "description": "There are seven mammalian CKI isoforms (α, β, γ1−3, δ and ε). All these isoforms contain a conserved serine-threonine kinase domain and various amino terminal and carboxyl terminal domains. CKIε and CKIδ the most closely related isoforms have a longer carboxy terminus compared to the other isoforms. […] The activation of the Wnt pathway was analyzed by induction of ectopic axis in Xenopus embryos and the Lef-1 reporter gene assay.\nLef-1 reporter assays were carried out as done as described in Sakanaka et al. (1998) Proc Natl Acad Sci USA. 95:3020-3. For example, 293 cells were seeded at 2×10^5 cells/well in 12-well culture plates. Cells were transfected with 0.2 μg of the luciferase reporter gene, 0.02 μg of Lef-1, 0.03 μg of pTK-β-gal as an internal control, the indicated amount of CKIε, Axin or Wnt-1 cDNA, and pcDNA3.1 vector to a total amount of 0.4 μg of plasmids. Transfection was performed by Lipofectamine (Lifetechnologies Inc. #18324012). Luciferase and β-gal activities were measured 48 h after transfection. Relative light units (RLU) were measured with a luminometer (Analytical Luminescence Laboratory, Monolight 2010)."}, "[1]": {"system": "Lef-1 dependent transcription", "assay": "Lef-1 enhancer luciferase reporter assay in Cos cells", "assay_type": "cell-based", "description": "Combinations of Wnt-1, CKIε, CKI kinase dead variant (lys→arg 38) and Lef-1 were transfected into Cos cells with a luciferase gene driven by multiple copies of Lef enhancer elements. As an internal control of transfection efficiency, the β-galactosidase gene driven by the SV40 promoter was co-transfected in all samples. 24 hours after transfection, cells were lysed and the lysate was tested for luciferase activity. The luciferase activity was normalized with respect to β-galactosidase activity. […] Dorsoanterior index (DAI) grade numbers were assigned to the phenotypes of the embryos. A grade 5 embryo is normal; a grade 3 embryo is cyclopic (one eye); a grade 1 embryo has a tail fin and somites but no head (acephalic); and a grade 0 embryo has no dorsoanterior structures (Kao et al., 1988).\nThe effect of CKI on Lef-1 dependent transcription in Cos mammalian cells was examined. A luciferase reporter gene driven by multiple copies of the Lef-I enhancer sequence was used. When only Wnt-I or lef-I or CKIε was transfected with the reporter construct, luciferase activity was induced only 2 to 3 fold (FIG. 1A). When Lef-1 was cotransfected with either Wnt-1 or CKIε, luciferase activity was induced 30 or 12 fold respectively.\nLuciferase reporter plasmid contains multiple Lef-I enhancer sites upstream of the fos basal promoter. Various DNA plasmids encoding Wnt-1, CKIε , Dvl-1, GSK3 etc. were co-transfected with a luciferase reporter plasmid and a SV40 β-galactosidase plasmid into 24-well Cos cell culture. For each well, 0.5 μg total DNA was in a ratio of 0.08 μg:016 μg:0.02 μg for signaling molecules:luciferase: β-gal. SV40 β-gal construct was used as an internal transfection control, since β-gal activity is independent of the Wnt-1 signaling molecules. Transfection was done using LT1 (5 μl/μg DNA) (Panvera Co. # MIR23 10). Each sample was transfected in triplex repeats to obtain a statistical value. After 24 hours, cells were washed once with PBS and lysed in 50 μl/well lysis buffer supplied with the luciferase assay kit (Promega cat# EI500). 10 μl of each sample was aliquoted into two sets of tubes, one set for the luciferase assay and another for β-gal chemiluminescent reporter assay (Galacto-Light, TROPIX Inc. #BL100G). The result of the luciferase assay was divided by the corresponding β-gal activity, and then averaged."}, "GSK3": {"system": "GSK3", "assay": "In vitro kinase assay on GSK3", "assay_type": "biochemical", "excerpt": "B) Luciferase activity transduced by Dvl-1 was inhibited by CKI lys→arg 38. […] It was immunoprecipitated using anti-HA antibody and mixed with Immunoprecipitated GSK3."}, "Axin": {"target": "T1, Axin (Homo sapiens, UniProt O15169)", "T1 construct": "expressed in transfected cells; host or cells: 293 cells", "T1 sequence (O15169 whole entry, species assumed)": "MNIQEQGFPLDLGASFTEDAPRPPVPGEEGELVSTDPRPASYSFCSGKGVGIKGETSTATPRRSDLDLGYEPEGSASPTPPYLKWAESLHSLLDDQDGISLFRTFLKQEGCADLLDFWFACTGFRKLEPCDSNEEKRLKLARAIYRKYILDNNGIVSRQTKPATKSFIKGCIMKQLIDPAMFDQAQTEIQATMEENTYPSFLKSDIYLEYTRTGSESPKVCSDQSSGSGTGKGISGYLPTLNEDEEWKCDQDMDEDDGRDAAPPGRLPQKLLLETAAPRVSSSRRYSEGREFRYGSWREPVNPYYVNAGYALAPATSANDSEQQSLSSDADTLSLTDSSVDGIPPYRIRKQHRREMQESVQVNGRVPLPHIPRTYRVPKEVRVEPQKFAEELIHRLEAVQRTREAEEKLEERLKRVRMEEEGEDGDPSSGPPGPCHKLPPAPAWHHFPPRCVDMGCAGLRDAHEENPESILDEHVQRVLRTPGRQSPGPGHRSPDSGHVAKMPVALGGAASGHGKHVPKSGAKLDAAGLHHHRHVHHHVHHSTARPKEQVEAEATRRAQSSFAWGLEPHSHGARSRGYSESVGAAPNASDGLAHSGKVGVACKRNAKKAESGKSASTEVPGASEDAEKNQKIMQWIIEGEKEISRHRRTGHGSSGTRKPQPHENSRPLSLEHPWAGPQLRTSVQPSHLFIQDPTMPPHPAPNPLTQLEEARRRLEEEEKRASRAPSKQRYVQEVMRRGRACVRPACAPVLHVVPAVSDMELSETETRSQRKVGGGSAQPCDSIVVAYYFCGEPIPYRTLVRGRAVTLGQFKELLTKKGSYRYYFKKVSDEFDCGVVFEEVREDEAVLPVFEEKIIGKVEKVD", "assay": "Co-immunoprecipitation with Axin in 293 cells", "assay_type": "binding", "settings": "both molecules co-expressed in 293 cells", "description": "Interaction of CKI with Axin When Axin was expressed in 293 cells, endogenous CKIε was found in the Axin immune-complex.\nCells were washed with PBS and lysed in buffer (20 mM Tris.HCl, pH 7.5/1 mM EDTA/0. 1% Triton X-100/[…]/1 mM phenylmethylsulfonyl fluoride/10 μg/ml each of aprotinin and leupeptin). For immunoprecipitation, cell lysates were incubated with various antibodies for 4 hours at 4° C., then added Dynabeads M-450 Sheep anti-Mouse IgG (Dynal Inc. #110.01). Enhance chemiluminescence reagents (Amersham Pharmacia Biotech) were used for detection of the immunoblots."}}, "note": "Read-outs that look alike come from different tables or passages of the source.", "data": [{"molecule": "Sgg: Drosophila Sgg (GSK3) protein, copper-inducible expression (protein, UniProt P18431 1-514, looked up) Protein kinase shaggy: MSGRPRTSSFAEGNKQSPSLVLGGVKTCSRDGSKITTVVATPGQGTDRVQEVSYTDTKVIGNGSFGVVFQAKLCDTGELVAIKKVLQDRRFKNRELQIMRKLEHCNIVKLLYFFYSSGEKRDEVFLNLVLEYIPETVYKVARQYAKTKQTIPINFIRLYMYQLFRSLAYIHSLGICHRDIKPQNLLLDPETAVLKLCDFGSAKQLLHGEPNVSYICSRYYRAPELIFGAINYTTKIDVWSAGCVLAELLLGQPIFPGDSGVDQLVEVIKVLGTPTREQIREMNPNYTEFKFPQIKSHPWQKVFRIRTPTEAINLVSLLLEYTPSARITPLKACAHPFFDELRMEGNHTLPNGRDMPPLFNFTEHELSIQPSLVPQLLPKHLQNASGPGGNRPSAGGAASIAASGSTSVSSTGSGASVEGSAQPQSQGTAAAAGSGSGGATAGTGGASAGGPGSGNNSSSGGASGAPSAVAAGGANAAVAGGAGGGGGAGAATAAATATGAIGATNAGGANVTDS", "values": [{"measurement": "Arm (β-catenin) protein level", "setting": "Arm (β-catenin); cells expressing CKIε and Sgg (GSK3)", "result": "reduced"}]}, {"molecule": "CKIδ: casein kinase I δ isoform (protein, UniProt P48730 1-415, looked up) Casein kinase I isoform delta: MELRVGNRYRLGRKIGSGSFGDIYLGTDIAAGEEVAIKLECVKTKHPQLHIESKIYKMMQGGVGIPTIRWCGAEGDYNVMVMELLGPSLEDLFNFCSRKFSLKTVLLLADQMISRIEYIHSKNFIHRDVKPDNFLMGLGKKGNLVYIIDFGLAKKYRDARTHQHIPYRENKNLTGTARYASINTHLGIEQSRRDDLESLGYVLMYFNLGSLPWQGLKAATKRQKYERISEKKMSTPIEVLCKGYPSEFATYLNFCRSLRFDDKPDYSYLRQLFRNLFHRQGFSYDYVFDWNMLKFGASRAADDAERERRDREERLRHSRNPATRGLPSTASGRLRGTQEVAPPTPLTPTSHTANTSPRPVSGMERERKVSMRLHRGAPVNISSSDLTGRQDTSRMSTSQIPGRVASSGLQSVVHR", "values": [{"measurement": "activation of the Wnt pathway", "setting": "Wnt pathway", "result": "activate the Wnt pathway"}]}, {"molecule": "CKIε: mouse casein kinase I ε, SEQ ID NO:1, 416 amino acids, 98.9% identical to human CKIε; expressed from transfected cDNA (protein, HA tag; Mus Casein Kinase I epsilon, expressed from transfected cDNA) MELRVGNKYRLGRKIGSGSFGDIYLGANIASGEEVAIKLECVKTKHPQLHIESKFYKMMQGGVGIPSIKWCGAEGDYNVMVMELLGPSLEDLFNFCSRKFSLKTVLLLADQMISRIEYIHSKNFIHRDVKPDNFLMGLGKKGNLVYIIDFGLAKKYRDARTHQHIPYRENKNLTGTARYASINTHLGIEQSRRDDLESLGYVLMYFNLGSLPWQGLKAATKRQKYERISEKKMSTPIEVLCKGYPSEFSTYLNFCRSLRFDDKPDYSYLRQLFRNLFHRQGFSYDYVFDWNMLKFGAARNPEDVDRERREHEREERMGQLRGSATRALPPGPPTGATANRLRSAAEPVASTPASRIQQTGNTSPRAISRADRERKVSMRLHRGAPANVSSSDLTGRQEVSRLAASQTSVPFDHLGK", "values": [{"measurement": "Arm (β-catenin) protein level", "setting": "Arm (β-catenin); cells expressing CKIε, copper induction", "result": "significantly higher than background"}, {"measurement": "induction of transcription", "setting": "[1]; Wnt-I and CKI without lef-I", "result": "did not induce the transcription"}, {"measurement": "luciferase activity induced", "setting": "[1]; cotransfected with Lef-1, Cos cells", "result": 12, "unit": "fold"}, {"measurement": "phosphorylation of GSK3", "setting": "GSK3; in vitro", "result": "phosphorylated purified GSK3 protein as well as immunoprecipitated GSK3 protein"}, {"measurement": "activation of the Wnt pathway", "setting": "Wnt pathway", "result": "activate the Wnt pathway"}]}, {"molecule": "CKIεΔ: truncated CKIε mutant where the C-terminus was deleted (protein, left off: small tags and cut ends, truncated CKIε mutant where the C-terminus was deleted) MELRVGNKYRLGRKIGSGSFGDIYLGANIASGEEVAIKLECVKTKHPQLHIESKFYKMMQGGVGIPSIKWCGAEGDYNVMVMELLGPSLEDLFNFCSRKFSLKTVLLLADQMISRIEYIHSKNFIHRDVKPDNFLMGLGKKGNLVYIIDFGLAKKYRDARTHQHIPYRENKNLTGTARYASINTHLGIEQSRRDDLESLGYVLMYFNLGSLPWQGLKAATKRQKYERISEKKMSTPIEVLCKGYPSEFSTYLNFCRSLRFDDKPDYSYLRQLFRNLFHRQGFSYDYVFDWNMLKFGAARNPED", "values": [{"measurement": "kinase activity of C-terminally truncated mutant", "setting": "GSK3", "result": "intact kinase activity"}, {"measurement": "kinase activity of C-terminally truncated mutant", "setting": "GSK3; listed as C-terminally truncated CKIε", "result": "has kinase activity"}, {"measurement": "activation of the Wnt pathway", "setting": "Wnt pathway", "result": "fails to activate the Wnt pathway"}, {"measurement": "Axin binding", "setting": "Axin", "result": "bound less Axin"}]}, {"molecule": "CKIα: casein kinase I α isoform (protein, UniProt P48729 2-337, looked up) Casein kinase I isoform alpha: ASSSGSKAEFIVGGKYKLVRKIGSGSFGDIYLAINITNGEEVAVKLESQKARHPQLLYESKLYKILQGGVGIPHIRWYGQEKDYNVLVMDLLGPSLEDLFNFCSRRFTMKTVLMLADQMISRIEYVHTKNFIHRDIKPDNFLMGIGRHCNKLFLIDFGLAKKYRDNRTRQHIPYREDKNLTGTARYASINAHLGIEQSRRDDMESLGYVLMYFNRTSLPWQGLKAATKKQKYEKISEKKMSTPVEVLCKGFPAEFAMYLNYCRGLRFEEAPDYMYLRQLFRILFRTLNHQYDYTFDWTMLKQKAAQQAASSSGQGQQAQTPTGKQTDKTKSNMKGF", "values": [{"measurement": "activation of the Wnt pathway", "setting": "Wnt pathway", "result": "not the case"}]}]}
